Experimental findings from paper doi:10.1101/2022.08.11.503658 are described below.

Common to all, as to assay: SDS-PAGE of lysate kept at 25°C versus heated to 95°C, with immunoblot
Background: In western blotting, separated proteins are transferred to a membrane and probed.

The target in assay [1] is C-terminally 6xHis-tagged NoV GII.4 VP1 capsid protein expressed by rSA11/NSP3-2A-VP1His (human norovirus GII.4 MD145-12).
Assay [2] has as its target Rotavirus SA11 VP6 (rotavirus SA11).
Assay [3] concerns the target N-terminally 3xFLAG-tagged NoV GII.4 VP1 capsid protein expressed by rSA11/NSP3-2A-fVP1 (human norovirus GII.4 MD145-12).
Assay [4] has as its target Rotavirus SA11 NSP3 (wild type, from rSA11/wt) (rotavirus SA11).
Assay [5] concerns the target C-terminally 1xFLAG-tagged NoV GII.4 VP1 capsid protein expressed by rSA11/NSP3-2A-VP1f (human norovirus GII.4 MD145-12).
In assay [6] the target is Rotavirus SA11 NSP3 linked to remnant residues of the 2A peptide (rotavirus SA11 | porcine teschovirus).

The term stoichiometry N denotes the number of molecules, sites or subunits per partner or assembly. With “C-terminally 6xHis-tagged NoV GII.4 VP1 capsid protein expressed by rSA11/NSP3-2A-VP1His (natural protein)”, the stoichiometry N in assay [1] came out at 2.

In assay [2], Rotavirus SA11 VP6 (natural protein) had a stoichiometry N of 3.

The substance “N-terminally 3xFLAG-tagged NoV GII.4 VP1 capsid protein expressed by rSA11/NSP3-2A-fVP1 (natural protein)” displayed a stoichiometry N in assay [3] of 2.

In assay [4], “Rotavirus SA11 NSP3 (wild type, from rSA11/wt) (natural protein)” showed a stoichiometry N of 2.

“C-terminally 1xFLAG-tagged NoV GII.4 VP1 capsid protein expressed by rSA11/NSP3-2A-VP1f (natural protein)” showed a stoichiometry N in assay [5] of 2.

For “Rotavirus SA11 NSP3 linked to remnant residues of the 2A peptide”, the stoichiometry N in assay [6] turned out to be 2.
